Measured values from US20220125947A1 (published 2022).
Substitutions are numbered along the chain they refer to.

B1: VG9B21 (antibody, human IgG1, kappa, V domains shown)
VH: EVQLLESGGGLVKPGGSLRLSCAASGFSFSNYDMNWVRQAPRKGLEWVSSISSSSHYIYYADSLKGRFTISRDNAKNSLFLQMNSLRAEDTAVYYCARDRGVTTDYYYYALDVWGQGTMVTVSS
VL: DIVMTQSPSSLSASVGDRVTITCRASQGIYNYLAWYQQKPGNVPKLLIYAASTLQSGVPSRFSGSGSGTDFSLTISSLQPEDFTTYYCQKYNRAPFTFGPGTKVDIKR
B2: VG9B57 (antibody, human IgG1, kappa, V domains shown)
VH: EVQLVESGGGLVKPGGSLRLSCAASGFTFSSHDMNWVRQAPGKGLGWVSSISSSSSYIFYADSVKGRFTISRDNAKNSLYLQMSSLRAEDTAVYYCARDLGVGVRDYYYYGMDVWGQGTMVTVSS
VL: DIQMTQSPSAMSASVGDRVTITCRASQDITNYLAWFQQKPGKVPKRLIYAASSLQGGVPSRFSGSGSGTEFTLTISSLQPEDFSTYYCLQHDTYPYTFGQGTKLEIKR
B3: VG9B135 (antibody, human IgG1, kappa, V domains shown)
VH: QVTLKESGPTLVTPSQTLTLTCTFSGFSLTTYGVGVGWIRQPPGKALEWLALIYWNDDKRYYPSLNNRLTITKDTSKHLVVLTLTNMDPVDTATYYCAHDYDFWSGYFDYWGQGTLVTVSS
VL: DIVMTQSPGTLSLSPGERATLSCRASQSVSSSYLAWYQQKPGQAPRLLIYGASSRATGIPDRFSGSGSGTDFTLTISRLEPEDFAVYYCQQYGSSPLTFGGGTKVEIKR
B4: VG9B33 (antibody, human IgG1, kappa, V domains shown)
VH: EVQLVESGGGLVKPGGSLRLSCAASGFTFSSYNMNWVRQAPGKGLEWVSSISTSSSYIYYADSVKGRFTISRDNAKNSLYLQMNGLRAEDTAVYYCARDTSVTKYPDTFDIWGQGTMVTVSS
VL: DIVMTQSPSSLSASVGDRVTITCRASQDINNYLAWFQQKPGKVPNLLIYGASTLQSGVPSRFTGSGSGTDFTLTISSLQPEDVATYYCQKYNSAPFTFGPGTKVDIKR
B5: VG9B67 (antibody, human IgG1, kappa, V domains shown)
VH: EVQLVESGGGLVKPGGSLRLSCAASGFTFSSYTMNWVRQAPGKGLEWVSSISSSSSYIDYAESVKGRFTISRDNAKNSLYLQMNSLRAEDTAVYYCARDGDILATIRGSFDYWGQGTTVTVSS
VL: DIVMTQTPLSLPVTPGEPASISCRSSQSLLDSDAGNTYLDWYLQKPGQSPQLLIYTLSYRASGVPDRFSGSGSGTDFTLKISRVEAEDVAIYYCMQRIEFPITFGQGTKVEIKR
B6: VG9B127 (antibody, human IgG1, kappa, V domains shown)
VH: B5 VH with E1Q, A23T, S30G, S31A, Y60F, N84I, L103V, A104S, T117A, T118L
VL: B5 VL with D1E, T7S, A34D, A90G
B7: VG9B66 (antibody, human IgG1, kappa, V domains shown)
VH: B5 VH with S31T, S56F, I58M, E62D, Y80S, Q82L, L103V, T118M
VL: EIVLTQSPSSLSTSVGDRVTITCRASQDITNFLAWYQQKPGKLPKLLIYTASTLQSGVPSRFSGSASGPDFTLTISSLQPEDVATYYCQKYNSAPFTFGPGTKVEIKR
B8: VG9B152 (antibody, human IgG1, lambda, V domains shown)
VH: EVQLVESGGGLVRPGGSLRLSCEASGFTFSSYSMIWVRQAPGKGLEWVSSISSSSDYIYNADSVKGRFTISRDNAKNSLYLQMNSLRAEDTAVYYCARDWELLGFDCWGQGTTVTVSS
VL: SYELMQPPSVSVSPGQTASITCSGDKLGDKYACWYQQKPGQSPVLVIYQHNKRPSGIPERFSGSNSGKTATLTISGTQAMDEADYYCQAWDSTTVVFGGGTKLTVLG
B9: VG9B64 (antibody, human IgG1, kappa, V domains shown)
VH: QVQLVESGPTLVKPTQTLTLTCTFSGFSLSISGVSVGWIRQPPGKALEWLALIYWNDDKRYSPSLQSRVTITKDTSKNQVVLTVTNMDSVDTATYYCVHSGQWLEGDAFDIWGQGTMVTVSS
VL: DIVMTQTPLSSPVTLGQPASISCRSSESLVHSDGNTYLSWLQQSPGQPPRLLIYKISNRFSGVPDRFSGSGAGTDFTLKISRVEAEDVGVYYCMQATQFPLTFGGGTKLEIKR
B10: VG9B409 (antibody, human IgG1, kappa, V domains shown)
VH: EVQLVESGAEVKKPGASVKVSCKASGYTLTSYYMHWVRQAPGQGLEWMGIINPSGGSTSYAQKFQGRVTMTRDTSTSTVYMELSSLRSEDTAVYYCARGSYGWYFDLWGRGTLVTVSS
VL: EIVLTQSPGTLSLSPGERATLSCRASQSVTSSYLAWYQQKPGQTPRLLIYGASSRATGIPDRISGSGSGTDFTLTVSRLEPEDFAVYYCQQYGSSPPYTFGQGTKLEIKR
B11: VG9B128 (antibody, human IgG1, kappa, V domains shown)
VH: EVQLVESGGGVVQPGKSLRLSCTASGFTFGTYGMHWVRQAPGKGLDWVAVIWYNGSNKYYADSVKGRFTISRDNSKNTLYLQMNSLRTEDTAVYYCARGGFGESFDSWGQGTLVTVSS
VL: DIVMTQTPATLSLSPGERATLSCRASQSVIDYLAWFQQKPGQAPRLLIYDASNRATGIPARFSGSGSGTDFTLTISSLEPEDFAVYYCQQRSNWPLTFGGGTKVEIKR
B12: VG9B137 (antibody, human IgG1, kappa, V domains shown)
VH: EVQLVESGGGLVKPGGSLRLSCAAFGITFSSYSMDWVRQAPGRGLEWVSSIGSSSSYIFYADSVKGRFTISRDNAKNSLYLQMNSLRAEDTAVYYCATSYSWNYGGAFDIWGQGTMVTVSS
VL: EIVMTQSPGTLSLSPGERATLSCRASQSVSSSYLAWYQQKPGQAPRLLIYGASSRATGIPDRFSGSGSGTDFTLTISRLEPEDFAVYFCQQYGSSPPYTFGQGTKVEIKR
B13: VG9B60 (antibody, human IgG1, kappa, V domains shown)
VH: QVQLVQSGAEVKKPGASVKVSCKASGYTFTGYYMHWVRQAPGQGLEWMGRINPNSGVTHYAQKFQGRVTMTRDTSISTAYMELSRLRSDDTAVYYCARGGSLVRGVISGLDYWGQGTTVTVSS
VL: DIVMTQSPGTLSLSPGERATLSCRASQSFSGSYLAWYQQKPGQAPSLLIYGASSRATGIPDRFSGSGSGTDFTLTISRLEPEDFALYYCQQYGSSPPYTFGQGTKVEIKR
B14: VG9B32 (antibody, human IgG1, kappa, V domains shown)
VH: EVQLVQSGGDLLQPGGSLRLSCAASGFTFSRYAMNWVRQAPGKGLEWVSFISGTGYTVYYADSVKGRFTISRDNAKNSLYLQMNSLRDEDTAVYYCARDQEPGFDYWGQGTLVTVSS
VL: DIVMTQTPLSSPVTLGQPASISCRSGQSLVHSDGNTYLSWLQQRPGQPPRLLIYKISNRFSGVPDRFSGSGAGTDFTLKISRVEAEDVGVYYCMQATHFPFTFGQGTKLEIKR
B15: VG9B162 (antibody, human IgG1, lambda, V domains shown)
VH: QVQLVESGAEVTKPGASVKVSCKASGYTFTGDYMHWVRQAPGQGLEWMGWINPNSGYTNYAQKFQGRVTMTRDTSISTAYMELSRLRSDDTAVYYCAREGDAFDVWGQGTMVTVSS
VL: QLVLTQSSSASGSPGQSVTISCTGTSSDVGGYNYVSWYQQHPGKAPKLMIYEVSKRPSGVPDRFSGSKSGNTASLTVSGLQAEDEADYYCNSYAGSNNFEVFGGGTKLTVLG
B16: VG9B402 (antibody, human IgG1, kappa)
heavy: not shown
light: DIQMTQSPSSVSASVGDRVTITCRASQGINSWLAWYQQKPGNAPKLLIYAASSLQSGVPSRFSGIGSGTDFIFTISSLQPEDFASYYCQQANSFPWTFGQGTKVDIKRTVAAPSVFIFPPSDEQLKSGTASVVCLLNNFYPREAKVQWKVDNALQSGNSQESVTEQDSKDSTYSLSSTLTLSKADYEKHKVYACEVTHQGLSSPVTKSFNRGEC
B17: VG9B111 (antibody, human IgG1, kappa, V domains shown)
VH: QVQLLESGGGLVKPGGSLRLSCAASGFTFSTYSVNWVRQAPGKGLEWVSSISSDSSYIFYADSMKGRFTISRDNAKNSLYLHMNSLRAEDTAVYYCARDSVTGPFDYWGQGTLVTVSS
VL: DIVMTQSPSSLSASVGDRVTITCQASQDISHYLNWYQQKPGKAPKLLIYDSYILETGVTSRFSGSGSGTDFTFTINSLQPEDIAIYYCQQYDNLPYTFGQGTKVEIKR
notes: also called antibody #62
B18: VG9B129 (antibody, human IgG1, kappa, V domains shown)
VH: EVQLVQSGAEVKKPGSSVKVSCKASGGTFSSYVISWVRQAPGQGLEWMGGILPILSTANYAQKFQGRVTITADKSTSTAYMELSSLRSEDTAVYYCARAHDYYYGMDVWGQGTTVTVSS
VL: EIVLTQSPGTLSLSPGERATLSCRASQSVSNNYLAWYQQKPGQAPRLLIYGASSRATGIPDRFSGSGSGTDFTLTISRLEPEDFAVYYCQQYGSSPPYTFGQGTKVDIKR
notes: also called antibody #59
B19: VG9B470 (antibody, human IgG1, kappa, V domains shown)
VH: QVTLKESGPTLVKPTQTLTLTCTFSGFSLTTSGVGVGWIRQPPGKALEWLALILWNDHTIYSPSLKSRLTITKDTSKNQVVLTMTNMDPVDTAAYFCARDKWELRDAFDIWGQGTMVTVSS
VL: EIVMTQSPSFLSASVGDRVTFTCRASQGISRYLAWYQQKPGRAPNLLIYVASTLQSGVPSRFSGSGSGTEFTLTISSLLPEDFATYYCQQLISYPYTFSQGTRLEIKR
notes: also called antibody #61
B20: VG9B411 (antibody, human IgG1, kappa, V domains shown)
VH: EVQLVESGGGLVKPGGSLRLSCSASGFTFSNYDMNWVRQAPGKGLEWVSSISSSSSYIYYADSVKGRFTISRDNAKNSLYLQMNSLRAEDTAVYHCARDVGVTTDYYYYGMDVWGQGTTVTVSS
VL: EIVMTQSPSSVSASVGDRVTITCRASQGINSWLAWYQQDPYKAPKLLIYAASTLQSGVPSRFGGRGSGTEFTLTISSLQPEDFAVYYCQQYNNWPRTFGQGTKVDIKR
notes: also called antibody #58
B21: VG9B396 (antibody, human IgG1, lambda, V domains shown)
VH: EVQLVESGPGLVQPSETLSLTCTVSGDSIRGYYWNWIRQPAGKGLEWIGRIFTTGNTNYNPSLKSRLTMSLDTSKNQFSLKLNSVTAADTAVYYCAREKWDSSSSALYFDFWGQGTLVTVSS
VL: QSVLTQAPSVSGAPGQRVTISCTGSSSNIGADYDVKWYQQLPGTAPKLLIYGNTDRPSGVPDRFSGSKSGTSASLAITGLQAEDEADYYCQSYDSRLTGYVVFGGGTKLTVLG
notes: also called antibody #60

Each binder was assayed against T1, γδ T cell receptor on human γδ T cells (human) (assay: flow cytometry, dose-response binding at 37° C. on human γδ T cells).
T1 construct: Mixed population of primary cells; also called AG000003021 (γδ T cells)
Protocol: (§1) Binding of antibodies to human γδ T cells or SKW cell lines expressing Vγ9/Vδ2, Vγ9/Vδ2 or Vγ5/Vδ2 was carried out by flow cytometry. Briefly, the cells were centrifuged at 300×g for 5 minutes and the pellet was resuspended in 34 ml fresh media (in RPMI+10% FBS). 50 μL of the cells were then plated (44K cells/well) into assay plates. Samples were incubated for one hour at 37° C. in tissue culture (TC) incubator followed by wash steps by adding 100 μl FACS staining buffer. Secondary detention antibodies (A647 conjugated anti-human IgG Fc specific antibody (2 μg/mL) along with AF488 anti mouse CD3, clone OKT3 at 1 ug/mL) were added at 50 μL/well to appropriate wells according to the plate map. After incubating for 60 minutes at 37° C. in the TC incubator, cells were again washed as described above. This is followed by resuspension in 20 μL/well running buffer containing 1:1000 dilution of Sytox blue dead cell stain and the plates were run on iQue Screener.
(§2) Gating and data analysis: Human anti-human Vγ9 antibody (VG9B2 mAb at 10 nM) was used to mark the gating of positive population. All cells were first gated for singlets on SCS-A vs. SCS-H dot plot, live/dead followed by CD3 positive population, and this subset of CD3 positive population was gated for Vγ9 positive binding using positive control mAb. Cells were also assessed for cell binding of control mAbs by RL1 (A647) Geomeans from the live cell population. Advanced metrics were used and normalization metrics were chosen to calculate fold over background wells containing secondary antibody alone (designated as ‘background’ within ForeCyt settings).

Binder	Max. Activity [fold over background]
B1	1670
B2	1210
B3	577
B4	2090
B5	2270
B6	2230
B7	1220
B8	1850
B9	1690
B10	411
B11	1480
B12	2200
B13	567
B14	1210
B15	1860
B16	2250

The binders below were run against T2, γδ T cell receptor on human γδ T cells (human) (assay: flow cytometry, dose-response (DRC) binding at 37°C on human γδ T cells).
T2 construct: also called AG000003021 (γδ T cells)
Protocol: as §1, §2

Binder	Max. Activity [fold over background]
B17	3430
B18	271
B19	4270
B20	396
B21	4540
